This is an account of results in paper PMC3119066 (DNA repair, 2011).

Where two headings read alike, the source gives them in different places.

The target of assay [1] is T1, Rad51 (S. cerevisiae, UniProt P25454 1-400).
T1 sequence (looked up): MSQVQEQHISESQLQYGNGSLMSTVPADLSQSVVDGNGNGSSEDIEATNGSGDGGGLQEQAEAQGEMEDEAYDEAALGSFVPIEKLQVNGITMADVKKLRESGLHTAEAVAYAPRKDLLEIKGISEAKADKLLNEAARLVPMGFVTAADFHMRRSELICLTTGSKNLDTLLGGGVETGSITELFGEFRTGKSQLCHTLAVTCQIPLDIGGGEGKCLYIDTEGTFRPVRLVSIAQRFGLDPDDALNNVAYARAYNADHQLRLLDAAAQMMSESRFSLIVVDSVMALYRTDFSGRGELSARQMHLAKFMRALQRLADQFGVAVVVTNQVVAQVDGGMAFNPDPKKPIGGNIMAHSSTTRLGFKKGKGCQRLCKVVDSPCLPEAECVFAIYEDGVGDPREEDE
The experiment in a line: pull-down.

Assay [2] has as its target T1, Rad51. The experiment in a line: pull-down. This is another data set of the same source.

B1: Mei5-Sae3 complex (complex, S. cerevisiae)
chain 1: MHNQEEWLDKDKTLVNEEENTCINHSYTKKDTNNYRVGKSGIKDLKKPTNQKEIAIKNRELTKQLTLLRQENNHLQQACKILSENKIIENRKSIEKWRTICEMELSFILNSTLIKINRMGGYKDFLEKEMEAKKRRLEYQIDNGMEDQICEIKESDDFRQLSEVEKQEWESQMNEQLKELEKKKIAELEKLNKVLHDSEGKDFGMAELCTRLKLDYSLIFPQ
chain 2: MNYLETQLNKKQKQIQEYESMNGNLIKMFEQLSKEKKNDETPKKISSTYIKELKEYNELRDAGLRLAQIIADEKQCKIKDVFEEIGYSMKD
With B1, in the assay with Rad51 [1], the binding result is on record as “binds”.

B2: MBP-Mei5-N (domain or fragment, S. cerevisiae, UniProt P32489 1-121, looked up)
chain: MHNQEEWLDKDKTLVNEEENTCINHSYTKKDTNNYRVGKSGIKDLKKPTNQKEIAIKNRELTKQLTLLRQENNHLQQACKILSENKIIENRKSIEKWRTICEMELSFILNSTLIKINRMGG
Take B2: in the assay with Rad51 [2], the binding result is given as “binds”.
